From publication PMC8240856 (The Journal of Cell Biology, 2021)

B1: Bro1V^M8 (E686A, L691D) (domain or fragment, S. cerevisiae, UniProt P48582 370-709, looked up)
chain: DVYEKESIYSEEKATLLRKQVEETETANLEYSSFIEFTNLPRLLSDLEKQFSDGNIFSNTDTQGQLMRDQIQTWCKFIQTNEFRDIEEQMNKIVFKRKQILEILSALPNDQKENVTKLKSSLVAASNSDEKLFACVKPHIVEINLLNDNGKIWKKFDEFNRNTPPQPSLLDIDDTKNDKILELLKQVKGHAEDLRTLKEERSRNLSELRDEINNDDITKLLIINKGKSDVELKDLFEVELEKFEPLSTRIEATIYKQSSMIDDIKAKLDEIFHLSNFKDKSSGEEKFLEDRKNFFDKLQEAVKSFSIFASDLPKGIAFYDSDFNMSRDLAERVRVAKQTE
B2: GST-Bro1V(370-709) (domain or fragment)
chain: DVYEKESIYSEEKATLLRKQVEETETANLEYSSFIEFTNLPRLLSDLEKQFSDGNIFSNTDTQGQLMRDQIQTWCKFIQTNEFRDIEEQMNKIVFKRKQILEILSALPNDQKENVTKLKSSLVAASNSDEKLFACVKPHIVEINLLNDNGKIWKKFDEFNRNTPPQPSLLDIDDTKNDKILELLKQVKGHAEDLRTLKEERSRNLSELRDEINNDDITKLLIINKGKSDVELKDLFEVELEKFEPLSTRIEATIYKQSSMIDDIKAKLDEIFHLSNFKDKSSGEEKFLEDRKNFFDKLQEAVKSFSIFASDLPKGIEFYDSLFNMSRDLAERVRVAKQTE
B3: Bro1 V domain (Bro1V; aa 370-709) (domain or fragment)
chain: DVYEKESIYSEEKATLLRKQVEETETANLEYSSFIEFTNLPRLLSDLEKQFSDGNIFSNTDTQGQLMRDQIQTWCKFIQTNEFRDIEEQMNKIVFKRKQILEILSALPNDQKENVTKLKSSLVAASNSDEKLFACVKPHIVEINLLNDNGKIWKKFDEFNRNTPPQPSLLDIDDTKNDKILELLKQVKGHAEDLRTLKEERSRNLSELRDEINNDDITKLLIINKGKSDVELKDLFEVELEKFEPLSTRIEATIYKQSSMIDDIKAKLDEIFHLSNFKDKSSGEEKFLEDRKNFFDKLQEAVKSFSIFASDLPKGIEFYDSLFNMSRDLAERVRVAKQTE
B4: Bro1V^M4 (V505A, H508A, I512A) (domain or fragment)
chain: DVYEKESIYSEEKATLLRKQVEETETANLEYSSFIEFTNLPRLLSDLEKQFSDGNIFSNTDTQGQLMRDQIQTWCKFIQTNEFRDIEEQMNKIVFKRKQILEILSALPNDQKENVTKLKSSLVAASNSDEKLFACAKPAIVEANLLNDNGKIWKKFDEFNRNTPPQPSLLDIDDTKNDKILELLKQVKGHAEDLRTLKEERSRNLSELRDEINNDDITKLLIINKGKSDVELKDLFEVELEKFEPLSTRIEATIYKQSSMIDDIKAKLDEIFHLSNFKDKSSGEEKFLEDRKNFFDKLQEAVKSFSIFASDLPKGIEFYDSLFNMSRDLAERVRVAKQTE
B5: Bro1V^M10 (K481D) (domain or fragment)
chain: DVYEKESIYSEEKATLLRKQVEETETANLEYSSFIEFTNLPRLLSDLEKQFSDGNIFSNTDTQGQLMRDQIQTWCKFIQTNEFRDIEEQMNKIVFKRKQILEILSALPNDQDENVTKLKSSLVAASNSDEKLFACVKPHIVEINLLNDNGKIWKKFDEFNRNTPPQPSLLDIDDTKNDKILELLKQVKGHAEDLRTLKEERSRNLSELRDEINNDDITKLLIINKGKSDVELKDLFEVELEKFEPLSTRIEATIYKQSSMIDDIKAKLDEIFHLSNFKDKSSGEEKFLEDRKNFFDKLQEAVKSFSIFASDLPKGIEFYDSLFNMSRDLAERVRVAKQTE
B6: Bro1V^M9 (T587D) (domain or fragment)
chain: DVYEKESIYSEEKATLLRKQVEETETANLEYSSFIEFTNLPRLLSDLEKQFSDGNIFSNTDTQGQLMRDQIQTWCKFIQTNEFRDIEEQMNKIVFKRKQILEILSALPNDQKENVTKLKSSLVAASNSDEKLFACVKPHIVEINLLNDNGKIWKKFDEFNRNTPPQPSLLDIDDTKNDKILELLKQVKGHAEDLRTLKEERSRNLSELRDEINNDDIDKLLIINKGKSDVELKDLFEVELEKFEPLSTRIEATIYKQSSMIDDIKAKLDEIFHLSNFKDKSSGEEKFLEDRKNFFDKLQEAVKSFSIFASDLPKGIEFYDSLFNMSRDLAERVRVAKQTE

Target: T1, His6-Vps4 (S. cerevisiae, UniProt P52917 1-437)
T1 sequence: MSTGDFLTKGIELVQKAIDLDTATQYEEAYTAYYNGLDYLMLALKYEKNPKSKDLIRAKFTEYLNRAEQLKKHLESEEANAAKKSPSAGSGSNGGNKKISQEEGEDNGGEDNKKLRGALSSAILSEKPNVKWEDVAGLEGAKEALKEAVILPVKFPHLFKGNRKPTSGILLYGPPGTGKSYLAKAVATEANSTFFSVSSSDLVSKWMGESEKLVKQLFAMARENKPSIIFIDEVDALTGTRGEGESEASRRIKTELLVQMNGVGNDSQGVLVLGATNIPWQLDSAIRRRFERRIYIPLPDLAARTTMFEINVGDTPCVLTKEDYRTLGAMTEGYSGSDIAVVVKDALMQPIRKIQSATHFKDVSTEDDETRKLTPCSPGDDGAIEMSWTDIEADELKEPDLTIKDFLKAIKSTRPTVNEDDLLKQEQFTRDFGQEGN
Test: pull-down

Binding result, binds:
B1

Target: T1, His6-Vps4
Test: pull-down
Remark: another data set of the same source

Binding result, binds:
B2
B3
B4
B5
B6
